{
  "source": "the DeepSol protein solubility set",
  "data": [
    {"test": "soluble on expression in E. coli; label from the status in PepcDB or PDB records", "values": [
      {"sequence": "MGSDKIHHHHHHMHSLTPEYLAALCFDGTQVATLRTLGEYQGKQQLYAAQSPEALKGLRQIAVVESTESSNRLEGVVVAPSRLKSLVIRNATPKSRSEQEIAGYRDALALIHESAAHMPFSEGVVLQLHTLLYRYMPQAGGRWKATNNDIIERHPDGTSRLRFQPVASHLTPMAMADLTGRYATALDQHLADPLVLVPLAMLDLLCIHPFPDGNGRMSRLLTLLLLYHFDYAVGRYISLERIFEETKESYYETLEASSQGWYQGQHDVKPWLDYFWGALLRAYREFEERVGTIERGRGSKGDRVRAEVLGRSLPFSISEIEEACPGVSRDMVRLVLRAMKSEGLIESTGKGRGAKWIKQG", "soluble on expression in E. coli": "not soluble"},
      {"sequence": "LVIVTDPHQRIEWVNAAFEQQTGHSGPSVRGQPLCAVLQGEPAPGGCGDRLRAMLAEGRTARAEVEATAACGRRFWLDVSLQPLLDDEGALDGYMAVASDIT", "soluble on expression in E. coli": "not soluble"},
      {"sequence": "VRDHLPPGLPPDPFADDPCDPSAALEAVEPGQPLDQQERMAVEADLADLAVYEALLAHKGIRGLVVCCDECQQDHYHDWDMLRSNLLQLLIDGTVRPHEPAYDPEPDSYVTWDYCRGYADASLNEAAPDADRFRRR", "soluble on expression in E. coli": "soluble"},
      {"sequence": "MSPDQKHRYKLYYVNMRGRAEPIRLVFHFLGVDFEDYRMDKGDFTGAMKDKAPMKQLPFIEIDGGKTTLCQTVSICRYLAKSIQPDRWFGGATKTDSAKVDMMADGFADLFQLAAMAKYAPDPIKDSMMGTYKESIGPKLENMQDLLKKSKGEYFVGKSIHWCDVYILGVLQALDESDDGVFDNLPELREYYLRMRNLPELKEYIDANWPETKYKE", "soluble on expression in E. coli": "not soluble"},
      {"sequence": "MGSDKIHHHHHHMKLIWLGHGGFRLETGETTLLIDPWLTGNPMLEDSQHDAATQGATHILLTHAHFDHVADVLELAKHLSVPIVGQYDLMGYWGETEGVQTVGFNKGGTVTVGDTRVSMVPASHSNTFSTRDGLRTAGSEVGYMIRAEGKTLYVSGDTDIMADMDWMGDYYKPEIGILSAGGHFTMDMKAAAYAAQRYFAFKTVIPCHYRTFPLLEQSAQDLIDGLPGVNVIEPQIMKDIEL", "soluble on expression in E. coli": "not soluble"},
      {"sequence": "VVLSTAFSQMFGIDYPIVSAPMDLIAGGELAAAVSGAGGLGLIGGGYGDRDWLARQFDLAAGAPVGCGFITWSLARQPQLLDLALQYEPVAVMLSFGDPAVFADAIKSAGTRLVCQIQNRTQAERALQVGADVLVAQGTEAGGHGHGPRSTLTLVPEIVDLVTARGTDIPVIAAGGIADGRGLAAALMLGAAGVLVGTRFYATVEALSTPQARDPLLAATGDDMCRTTIYDQLRRYPWPQGHTMSVLSNALTDQFEDTELDILHREEAMARYWRAVAARDYSIANVTAGQAAGLVNAVLPAADVITGMAQQAARTLTAMRAV", "soluble on expression in E. coli": "not soluble"},
      {"sequence": "MSLVHQLLAQMENGYMKIIKENLVGIYLHGSYAFGTYCHSVSDLDVLIVVYEKLTIDEKKQLLDYTINILDKWAPKKGIEFHVLQLKDTINLSYPIPFDLHFSPIHRSRYLTNKNKYIEDMMGYDEDLVAHLMITKLYGKVLVGKPIDSVFGWIDQKKYFESIVADVKEAKKEIVQQPMYVILNMCRVMAFKQENKILSKRAGGEWGLVHFPTNHHSLIQLALKEYRGETVLLEQYNDSELNDFADIMLSLLFKEGHHHHHH", "soluble on expression in E. coli": "not soluble"},
      {"sequence": "KLDKAYLNNDADKITYMPTWRPWEESEIINGNIKKTTYYKSILDVIKAFEKENMLNRLQIAAHNKFSQYMKNNFDKYQNIFIEDPTDTLTNSIIYITDISSIILDAAYRGAYPIFYWKEFDYIIEKHGGTSPVNPENAPGDVVYSEQDLVNIVKYIIRNDYKIPSRIKENYKKLNEFNDNQNTQRVVDILIEDNII", "soluble on expression in E. coli": "not soluble"},
      {"sequence": "MGSDKIHHHHHHDKDFGGLENIGWNEKPLQITTRILTTKSTNFIQEFKEGSMLGLQITSGTVDDLYNGISTYKNVSVKAYRVNGKIRWQQSPEVILDSNEATIYAYYPYQEDINFNARQIPVKLAPNALETDDYMYGTHAIGQKAVNSTSPLVLLSMNHALSLISFQLNLSKGKTGAFIISSVQVGNKPGGTTLVSEGTLDITTGDIIGSTARSTSASTVLSLTNPVTLINEKYCDPMRLMVIPPSGTIGTGDVETLFTINGETYKFDIPANTQWEKGKKYLYKLSFNGRSLQLRDVSITDWLPGNDEGLIGNIM", "soluble on expression in E. coli": "not soluble"},
      {"sequence": "TKDWKWKLSFNATTYKNKITSLPAEEMWSGNKKWVKGGSLYDFYLVEWAGVNPENGNPTWYRYNTNGEKITTEDYSSTTPDDKVKCGNSLPDWTGGLQSDLSFKDFTLSFLFSYSIGGKIYNGDKVSLMSQGPTGTGWSVDMLDRWTPENPYTDVPRLTTSPKSSWTNSSNRFLVDRSYLRLKNITFSYNLPKSLLNTLTLKDASIFFQAENMLTLAKQQGLDPEQTFGGSTYYRYPAMKTISFGINVKL", "soluble on expression in E. coli": "not soluble"},
      {"sequence": "MIREFSEDDIEPLATGAWILGTGGGGNPYISTLNLRRLYAEGRRVKVMDPMALADDDMVAVVSKMGAPLVGQERLGDPAHLARAVEVMEDYLGKPFRAIMSVEIGGSNALSSFLAAAVLDRPVVNADAMGRAYPEAQMTSFAIGNLPMFPLSLVDVRDNEVIVTRAASWKWMERISRKVCTEVGSTAATCKAPRTGKEVKEWGIHYTVTKATELGRAVMEARARHDDPVQAVLDHEGGKQLFRGKVVDVARETTGGFLRGSTTIEGIDADRGSRMELAFQNEWAVAFRDGQPVAMTPDLLCLLDTVSGGAIGTESVRYGQRVTVVALPAPELLTTPAGIDAVGPRAFGYDIDFRSVFPLEHHHHHH", "soluble on expression in E. coli": "soluble"},
      {"sequence": "MTHRSSRLEVGPVARGDVATIEHAELPPGWVLTTSGRISGVTEPGELSVHYPFPIADLVALDDALTYSSRACQVRFAIYLGDLGRDTAARAREILGKVPTPDNAVLLAVSPNQCAIEVVYGSQVRGRGAESAAPLGVAAASSAFEQGELVDGLISAIRVLSAGIAPG", "soluble on expression in E. coli": "soluble"},
      {"sequence": "MHYQPKQDLLQNRIILVTGASDGIGREAALTYARYGATVILLGRNEEKLRRVAQHIADEQHVQPQWFTLDLLTCTAEECRQVADRIAAHYPRLDGVLHNAGLLGEIGPMSEQDPQIWQDVMQVNVNATFMLTQALLPLLLKSDAGSLVFTSSSVGRQGRANWGAYATSKFATEGMMQVLADEYQNRSLRVNCINPGGTRTSMRASAFPTEDPQKLKTPADIMPLYLWLMGDDSRRKTGMTFDAQPGRKPGIAQ", "soluble on expression in E. coli": "not soluble"},
      {"sequence": "MEYMVLIYRDEAFAPEYGSPEWEQMMGGFLAFNQRLIDGGHWIAGGGLQTTPSATTVRLAAGTVPKVLDGPYAETKEQLGGFYLVRADTLDEVLDLARSLPIEGAIEVRPLTYRPTGE", "soluble on expression in E. coli": "not soluble"},
      {"sequence": "MQRARCYLIGETAVVLELEPPVTLASQKRIWRLAQRLVDMPNVVEAIPGMNNITVILRNPESLALDAIERLQRWWEESEALEPESRFIEIPVVYGGAGGPDLAVVAAHCGLSEKQVVELHSSVEYVVWFLGFQPGFPYLGSLPEQLHTPRRAEPRLLVPAGSVGIGGPQTGVYPLATPGGWQLIGHTSLSLFDPARDEPILLRPGDSVRFVPQKEGVC", "soluble on expression in E. coli": "soluble"},
      {"sequence": "MAHHHHHHMNSPVVKMKAVKNDVEIDNMKQAHILDGLALLQFFHWCEQKRKTKELFNETEMSLRHKVDYFRSTKKNFIFPSFSTISASGPNAAVIHYECTDKTNATIKPAIYLLDSGGQYLHGTTDVTRTTHFGEPTAEEKRIYTLVLKGHLRLRKVIFASYTNSSALDFIARENLFNNFMDYNHGTGHGVGLTLNVHEGGCSIGPVGGAPLKKNMVLSNEPGYYMKDKFGVRIENMQYVISKEITDTTEYLSFDDLTMYPYEKKLLDFSLLTNQEIKELNEYHTTIRNTLLPLVKQSPQEYGESVEKYLIEITEPIAIHNN", "soluble on expression in E. coli": "not soluble"},
      {"sequence": "MGSDKIHHHHHHMPIITSYITQDDGTTTVVISGVELGNKETLLLDNGFDVEVDVSVIDPFQITGKQRRKIFALVKDIEEHTGQPMDYMRHMFIEFVRTYYGYDERISLSNCTRTQASQIIEATLDWTFYNDIPLSYKTSNLLKQDKSFLYWSTVNRNCVICGKPHADLAHYEAVGRGMNRNKMNHYDKHVLALCREHHNEQHAIGVKSFDDKYHLHDSWIKVDERLNKMLKGEKKE", "soluble on expression in E. coli": "not soluble"},
      {"sequence": "MVIMAGKAVRTEQVSATRQLILTTAERLFAEHGVYAVSNRQVSEAAGQGNNAAVGYHFGTKTDLVRAIAQRHSERVEELRARQLAALGDSPDLRDWVDCLVRPQFDHLAALGSPTWYARFCAQVMTDPALRQIMTEESRASVSLRAIIVGRNRCMPALPDEVRAERGDMARHLIVHTAEERERALAENRPTPRASWQDAADGLVDAIVGMWLAPVTPRGGG", "soluble on expression in E. coli": "not soluble"},
      {"sequence": "RLAVGDEITAAGELLAGGKILAIKGIGGFHLAVDASNEAAVRRLRSRKGREEKPFAVMVRDLAAARALCDISPEEKAALASPQAPIVLLRARQGLSLAPSIAPGNDRLGVMLPYSPLHWLLLREGPKVLVMTSANFSEEPLVADNAEALERLAGIADAFLMHDRPIARRCDDSVVMSMAGAVRLIRRSRGYAPAPVRLAES", "soluble on expression in E. coli": "not soluble"},
      {"sequence": "MESPIELAPDYYLENFFKLTHHAVTWYSDLLTEEEHAWLCSFDSLNKHAQCLLVRLYSRKGCWFRSDKLNYQEIPLIDAALAELGGQDFISLSPPLSHQEVAANLLTKPEISALYPELPKSLKKDALVERLSNTEFDRVEQLEFTIVRLNSAHMIDVLLTLFFANTHQDLSQFVLDDLGLHQFEQYQLSKVRRFFNSREQIDRLIELSQLANLYWQFDRKDKANLDLLIEAMPHPVHHPYVDRKREHMLNDIARDYERIDELETALSLFGQTQLTPSRERRARIYDKLNHDDLFSDIVTEMLHSPIDVSELEVAQKLEQRLKRKQGEKVPRVTKPTCMEYRVELDLSQQRVELASKAHFESLGWSVFYAENALLNALLGLTFWDAIFAPIEGAFINAYQHRPLDLYHSDFVAKRQALIDEAFAQLKLGNTQAILTKYDEKFGISNPFVQWSLIGKELLEQSLNTIPTRTLLELFKVQLSDLKLYRNGMPDLIAFRDNEFEWIEVKGPGDKLQDNQWRWIKEFSRLNVPFAVCYVTARKEDEKRVD", "soluble on expression in E. coli": "not soluble"},
      {"sequence": "MKAQEVPSTTFTGGETVLTFKGGVHPPELKEWSKDKPIERAPLPQKVFVFLSNHAGNPAKPVVSPGDEVKTGQVIGEPEGFISAYLHSPVTGRVLEIKKILHPILGKPIEAIVIERTSDDEWVHIETGDFERMSKEEILEIIKKAGIVGLGGAMFPTHVKLSPPPEKKVDTLIVNGAECEPVLTIDHRLMLERAEDILQGILIMMKVLGVQKAVVGVESNKMDAYHNLKKVFKGYPVDVALLRTKYPQGAEKQLIYAITGRMVPRGGLPMDVGVVVQNVGTCVAVKEAVVDGKPLVERGMTVSGDAVKNQKNLIVRIGTPVKDVIDYCGGIDENTERVILGGPMMGISITNLDIPVMKGTSGITAFLPKKSRPQKPCIRCSECVQVCPMNLQPYLLYLLSTKRKYDEAVENGLMDCIECGSCTYTCPSKIEHVRYIKLAKTVYRATRRGRRAAALEHHHHHH", "soluble on expression in E. coli": "soluble"},
      {"sequence": "MMTTSLFNNDDLNQLESKGITPEEAMRQVEALRYGFPYPNIIAPASLENGIMRLDEDDKSAYLLEWDRYLNSPNCNVVKFVPASGAASRMFKDLYNFLDADYNEPTTDAEKAFFAHLTRFAFYDSLNETCLRNAWRTVPKLIASKEYKTVVENLLYPKGLNYGNLPKGLLLFHLYGKETRTPTEEHLAEGALYERSGTRQVKVHFTVSPEHIEEFKNNIDKRQRFLEDEYCIRYEVSFSVQDSSTDTLALTPEGELFRLENGELLFRPGGHGALIRNLQETNADIVFIKNIDNVVPDFLKCDTIIYKKLIAGVLVKAREHIFNYLQLLEKPKVVHAQLMEIVDFLRYNFCIEISNIDLMEDKDLLELLRRKLDRPIRVCGMVRNQGEPGGGPFIIREADGSSSLQILESTQIDMSDPQKRAIFEQGSYFNPVDLVCSLRDYKGEPFNLESFVNPKTAFISEKSKDGRKLLALERPGLWNGAMDDWNTIFIEVPISTFAPVKTVNDLLRPEHQPCQS", "soluble on expression in E. coli": "soluble"}
    ]}
  ]
}
